Paper PMC9181621

Target: human α2-macroglobulin tetramer, (hα2M)4 (human) (UniProt P01023)
Assay: cryo-EM structure
Details: scale: trypsin molecule per disulfide-linked hα2M dimer

UniProt P01023, sequence (P01023 24-1474): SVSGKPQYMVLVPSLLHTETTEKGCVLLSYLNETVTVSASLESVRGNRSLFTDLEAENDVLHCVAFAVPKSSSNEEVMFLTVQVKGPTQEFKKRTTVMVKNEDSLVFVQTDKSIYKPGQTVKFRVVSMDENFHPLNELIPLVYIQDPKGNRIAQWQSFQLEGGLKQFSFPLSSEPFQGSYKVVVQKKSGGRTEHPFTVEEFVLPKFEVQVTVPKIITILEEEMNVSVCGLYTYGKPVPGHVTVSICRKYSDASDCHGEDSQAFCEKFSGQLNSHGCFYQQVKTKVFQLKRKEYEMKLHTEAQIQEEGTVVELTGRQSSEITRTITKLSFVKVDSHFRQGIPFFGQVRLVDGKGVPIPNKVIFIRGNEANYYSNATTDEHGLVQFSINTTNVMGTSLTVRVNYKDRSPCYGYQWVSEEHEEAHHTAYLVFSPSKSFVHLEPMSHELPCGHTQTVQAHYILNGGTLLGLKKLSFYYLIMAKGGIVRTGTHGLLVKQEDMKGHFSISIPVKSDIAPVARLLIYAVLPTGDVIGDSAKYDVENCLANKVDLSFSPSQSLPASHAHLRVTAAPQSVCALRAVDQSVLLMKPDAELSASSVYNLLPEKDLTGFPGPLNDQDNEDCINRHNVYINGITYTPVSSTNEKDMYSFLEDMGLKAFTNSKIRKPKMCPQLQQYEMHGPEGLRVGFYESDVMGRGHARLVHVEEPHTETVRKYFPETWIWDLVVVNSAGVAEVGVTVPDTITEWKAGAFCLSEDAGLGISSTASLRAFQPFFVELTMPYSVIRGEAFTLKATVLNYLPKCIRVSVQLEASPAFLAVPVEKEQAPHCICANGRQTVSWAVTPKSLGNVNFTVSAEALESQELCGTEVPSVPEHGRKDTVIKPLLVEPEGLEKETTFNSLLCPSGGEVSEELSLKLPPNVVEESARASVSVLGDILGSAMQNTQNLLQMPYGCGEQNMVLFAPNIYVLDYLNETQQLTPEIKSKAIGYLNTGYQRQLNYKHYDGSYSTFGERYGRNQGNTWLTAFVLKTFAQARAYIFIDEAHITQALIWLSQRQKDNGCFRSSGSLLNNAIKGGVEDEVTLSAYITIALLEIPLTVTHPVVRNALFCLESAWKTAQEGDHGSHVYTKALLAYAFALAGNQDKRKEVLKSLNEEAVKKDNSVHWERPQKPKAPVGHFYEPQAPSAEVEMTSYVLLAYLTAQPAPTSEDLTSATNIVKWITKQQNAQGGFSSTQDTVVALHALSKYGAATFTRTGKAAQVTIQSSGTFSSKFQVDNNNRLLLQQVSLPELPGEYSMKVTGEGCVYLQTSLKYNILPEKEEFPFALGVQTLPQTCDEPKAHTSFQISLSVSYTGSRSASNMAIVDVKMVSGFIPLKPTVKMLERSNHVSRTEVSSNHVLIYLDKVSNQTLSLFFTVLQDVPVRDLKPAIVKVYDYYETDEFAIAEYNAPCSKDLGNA

stoichiometry N: 1
Substance: bovine trypsin (enzyme)
